This note sets out measurements from US20120128758A1.

Assay [1] deals with TND-669S HIV-1 envelope (HIV-1). As to the kind of experiment: cell-based or functional assay.
For assay [2], the target named is TND-669L HIV-1 envelope (HIV-1). As to the kind of experiment: cell-based or functional assay.
For assay [3], the target named is SP62 (gp41 652-671)-GTH1 peptide anchored to liposomes. As to the kind of experiment: SPR on peptide-liposomes, encounter-docking (two-step) model, forward rate of the docking step; row '2F5 peptide liposome'.
Assay [4] shares this target. As to the kind of experiment: SPR on peptide-liposomes, encounter-docking (two-step) model, association of the encounter step; row '2F5 peptide liposome'.
Assay [5] shares this target. As to the kind of experiment: SPR on peptide-liposomes, encounter-docking (two-step) model, reverse rate of the docking step; row '2F5 peptide liposome'.
Assay [6] deals with SP62-L669S (gp41 652-671)-GTH1 peptide anchored to liposomes. As to the kind of experiment: SPR on peptide-liposomes, encounter-docking (two-step) model, dissociation of the encounter step; row 'L669S 2F5 peptide liposome'.
Assay [7] shares this target. As to the kind of experiment: SPR on peptide-liposomes, encounter-docking (two-step) model, association of the encounter step; row 'L669S 2F5 peptide liposome'.
The target is the same in assay [8]. The experiment in a line: SPR on peptide-liposomes, encounter-docking (two-step) model, reverse rate of the docking step; row 'L669S 2F5 peptide liposome'.
The target in assay [9] is SP62 (gp41 652-671)-GTH1 peptide anchored to liposomes. The experiment in a line: SPR on peptide-liposomes, encounter-docking (two-step) model, dissociation of the encounter step; row '2F5 peptide liposome'.
Assay [10] has the same target. As to the kind of experiment: SPR, peptide anchored to phospholipid liposomes. On the technique in general: SPR reads the build-up and loss of mass on a sensor chip optically.
Assay [11] concerns the target SP62-L669S (gp41 652-671)-GTH1 peptide anchored to liposomes. The experiment in a line: SPR, peptide anchored to phospholipid liposomes.
The target is the same in assay [12]. As to the kind of experiment: SPR on peptide-liposomes, encounter-docking (two-step) model, forward rate of the docking step; row 'L669S 2F5 peptide liposome'.

On to mAb 2F5 (antibody), for which the values for the mean IC50, neutralisation of Env-pseudovirus on JC53-BL cells in assay [1] and in [2] were 0.014 µg/mL and 3.92 µg/mL, respectively. Further, the ka2 in assay [3] was 0.0181 s⁻¹; in [12], 0.0054 s⁻¹. The results for the ka1 in assay [4] and in assay [7] were 931000 M⁻¹ s⁻¹ and 498000 M⁻¹ s⁻¹, respectively. Further, the results for the kd2 in [5] and in assay [8] were 0.00037 s⁻¹ and 2e-05 s⁻¹, respectively. In addition, the kd1 in assay [6] was 0.00119 s⁻¹; in assay [9], 0.00692 s⁻¹. In assay [10], this substance returned a response unit at 10 seconds after the injection was stopped of 495 RU. The same substance had a response unit (background subtracted) at 10 seconds after the injection was stopped in assay [11] of 617 RU.

As for mAb 4E10 (antibody), in [1], the fold lower neutralisation IC50 against TND-669S than against TND-669L was 275 fold and the mean IC50, neutralisation of Env-pseudovirus on JC53-BL cells was 0.031 µg/mL. The substance further had a mean IC50, neutralisation of Env-pseudovirus on JC53-BL cells in assay [2] of 8.49 µg/mL.

In turn, mAb 17b (antibody) gave an increase in neutralization sensitivity against TND-669L in [1] of 2 fold.

Turning to mAb 447-52D (antibody), in assay [1], the enhancement of neutralization sensitivity against TND-669L is greater than 161 fold and the neutralization of Env-pseudovirus, IC50 was found to be 0.31 µg/mL.
